This data set concerns the target T1, L-selectin LE-His (monomeric, lectin and EGF-like domains) (human, UniProt P14151 39-194).
T1 sequence: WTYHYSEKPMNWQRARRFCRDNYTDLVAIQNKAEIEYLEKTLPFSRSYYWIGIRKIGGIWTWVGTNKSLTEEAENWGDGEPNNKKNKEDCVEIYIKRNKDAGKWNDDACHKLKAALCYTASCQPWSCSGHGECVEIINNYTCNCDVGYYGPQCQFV
Nature of the data set: SPR (single cycle kinetics); 1 mM CaCl2; protein in cell culture supernatant; abstract gives ~12 nM; SPR: HBS-Ca (20 mM HEPES pH 7.5, 150 mM NaCl, 1 mM CaCl2), Biacore X100, temperature not stated; column: PBS with 0.9 mM CaCl2 and 0.5 mM MgCl2, room temperature. Conditions: protein: recombinant; tags: C-terminal His; label: 5' biotin.

With GCCAGTACAAGGTGCTAAACGTAATGGC (structured_DNA) [LD201mΔ1], the Kd stood at 11.2 ± 0.8 nM.

For the origin of these results see article PMC5336075, “Single-Step Purification of Monomeric l-Selectin via Aptamer Affinity Chromatography”.
